The values below come from US20030028009A1.

The target in this experiment is integrin αvβ3 expressed on cells (human) (UniProt P06756). Nature of the experiment: cell-based or functional assay.
Sequence of integrin αvβ3 expressed on cells (human) (P06756 31-1048, chain 1 of 2): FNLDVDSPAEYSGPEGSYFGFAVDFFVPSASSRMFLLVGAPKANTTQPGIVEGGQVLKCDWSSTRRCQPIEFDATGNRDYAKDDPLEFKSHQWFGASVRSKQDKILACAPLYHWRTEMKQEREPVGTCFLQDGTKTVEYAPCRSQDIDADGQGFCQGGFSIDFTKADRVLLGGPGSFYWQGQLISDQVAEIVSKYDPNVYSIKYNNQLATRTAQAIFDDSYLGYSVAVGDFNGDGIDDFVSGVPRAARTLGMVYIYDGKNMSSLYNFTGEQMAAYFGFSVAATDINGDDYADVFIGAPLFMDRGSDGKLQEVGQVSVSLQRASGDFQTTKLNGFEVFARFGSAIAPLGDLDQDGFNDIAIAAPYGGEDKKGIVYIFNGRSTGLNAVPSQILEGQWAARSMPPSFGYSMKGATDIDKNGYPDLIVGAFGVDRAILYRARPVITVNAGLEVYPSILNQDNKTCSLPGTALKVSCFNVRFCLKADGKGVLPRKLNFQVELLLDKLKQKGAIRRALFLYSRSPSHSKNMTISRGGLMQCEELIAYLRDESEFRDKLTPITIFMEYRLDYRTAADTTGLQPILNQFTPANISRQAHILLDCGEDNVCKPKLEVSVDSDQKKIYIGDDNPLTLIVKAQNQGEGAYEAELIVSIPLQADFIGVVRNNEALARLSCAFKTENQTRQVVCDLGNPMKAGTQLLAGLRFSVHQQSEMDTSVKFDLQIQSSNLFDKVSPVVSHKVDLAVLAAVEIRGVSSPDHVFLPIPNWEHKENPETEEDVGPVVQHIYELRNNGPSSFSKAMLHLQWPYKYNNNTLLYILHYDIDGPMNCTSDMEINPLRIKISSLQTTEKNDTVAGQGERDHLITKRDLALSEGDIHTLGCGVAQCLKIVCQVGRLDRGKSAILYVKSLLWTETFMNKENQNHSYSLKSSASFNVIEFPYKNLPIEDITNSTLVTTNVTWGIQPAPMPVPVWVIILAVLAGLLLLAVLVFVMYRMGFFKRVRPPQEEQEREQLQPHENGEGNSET
Sequence of integrin αvβ3 expressed on cells (human) (P05106 27-788, chain 2 of 2, further chain): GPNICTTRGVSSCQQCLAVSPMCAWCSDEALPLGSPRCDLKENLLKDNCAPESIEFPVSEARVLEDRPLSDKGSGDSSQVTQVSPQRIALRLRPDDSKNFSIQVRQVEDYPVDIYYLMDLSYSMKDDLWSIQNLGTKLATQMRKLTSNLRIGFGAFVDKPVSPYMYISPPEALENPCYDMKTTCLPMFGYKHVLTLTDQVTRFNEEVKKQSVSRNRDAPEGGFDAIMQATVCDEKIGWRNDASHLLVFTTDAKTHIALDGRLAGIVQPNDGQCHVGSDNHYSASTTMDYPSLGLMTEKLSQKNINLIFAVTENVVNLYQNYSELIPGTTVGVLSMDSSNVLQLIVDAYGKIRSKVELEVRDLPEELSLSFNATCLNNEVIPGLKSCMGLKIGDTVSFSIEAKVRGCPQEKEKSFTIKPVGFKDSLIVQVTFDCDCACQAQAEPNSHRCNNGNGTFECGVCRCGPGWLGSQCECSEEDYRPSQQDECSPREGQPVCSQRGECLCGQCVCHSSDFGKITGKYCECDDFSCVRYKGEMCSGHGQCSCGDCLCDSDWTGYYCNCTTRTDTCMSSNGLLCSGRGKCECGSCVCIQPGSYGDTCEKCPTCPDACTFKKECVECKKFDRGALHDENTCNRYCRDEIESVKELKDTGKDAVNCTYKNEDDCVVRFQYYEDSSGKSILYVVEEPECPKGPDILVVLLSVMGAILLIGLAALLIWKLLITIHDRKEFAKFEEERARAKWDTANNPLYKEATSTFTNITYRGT

Turning to monoclonal antibody LM609 (murine IgG), the inhibition of vitronectin-induced migration of endothelial cells (transwell) is 60% and the inhibitory concentration for 50% maximal adhesion (M21 cell adhesion to fibrinogen) turned out to be 50 ng/mL.
